{"source": "the DeepSol protein solubility set"}
{"assay": "soluble on expression in E. coli; label from the status in PepcDB or PDB records"}
{"sequence": "MSLKFIVIKIGGSTLSDMHPSIINNIKHLRSNNIYPIIVHGGGPFINEALSNQQIEPHFVNGLRVTDKATMTITKHTLIADVNTALVAQFNQHQCSAIGLCGLDAQLFEITSFDQQYGYVGVPTALNKDALQYLCTKFVPIINSIGFNNHDGEFYNINADTLAYFIASSLKAPIYVLSNIAGVLINDVVIPQLPLVDIHQYIEHGDIYGGMIPKVLDAKNAIENGCPKVIIASGNKPNIIESIYNNDFVGTTILNSEGHHHHHH", "soluble on expression in E. coli": "soluble"}
{"sequence": "MSLKHLGQTRSALHGSHAVITPETFVRTALAEWPGSAIVLHIAPVVGLGARFVQFTAEMPAGAQATESVYQRFAFVLSGEVDVAVGGETRTLREYDYVYLPAGEKHMLTAKTDARVSVFEKPYQTVEGVQAPGVYWGNERENPGYPFEGDDHLIARKLLPDEPAFDFMVSTMSFAPGASLPYAEVHYMEHGLLMLEGEGLYKLEENYYPVTAGDIIWMGAHCPQWYGALGRNWSKYLLYKDMNRHPLEGGSHHHHHH", "soluble on expression in E. coli": "soluble"}
{"sequence": "MSLKIERLNIIVTCPGRNFVTVKIVTDEGVHGLGDATLNGRELAVRAYLEDHVFPCLIGRDPRDIEDIWQYLYRGAYWRRGPVTMTAIAAIDMALWDIKSKLAGMPVYQLLGGKSREGLMVYGHANGRDHDEAIDAAHRHIAAGYRAIRVQSGVPGLAKVYGVGKTAGAYEPAEKGLPPEEPWDTALYLRHTPELFRKVRDALGDAPHLLHDAHHRLTPIEAARLGRDLEPYRLFWLEDATPAENQDAFRLIRSHTTTTLAVGEVFNSIWDCKDLIRDQLIDYIRATIVHAGGITHVRRIADYAAMYQVRTGFHGATDLSPVCMAAAVNFGLWAPNFGIQELMPHTALTDEVFPHNYRFDDGYLVMDDVPGLGVDIDETLAANYPYERAYLPVARLRDGSMWNWEGHHHHHH", "soluble on expression in E. coli": "not soluble"}
{"sequence": "MSLKIFPSSSIKKLDAYTIEHEPIASIDLMERAAQALTKAITERWDITTPVTVFAGPGNNGGDALAVARMLAEKEYKVEAYLFNPKGELSADCQTNKELVEMMDNVKFSEVSTQFVPPTLTMDHLVVDGLFGSGLNKPLSGGFAAVVKYINASPATVVAIDIPSGLMGEENTFNVKANIIRAQLTLSLQLPKLAFLFAENSEFVGEWKLLDINLSREAIEETESNYALLEAEEIHALIKPRNTFSHKGNFGHALLIAGSYGMAGASILAARACMRSGVGLLTVHAPIRNNDILQISVPEAIIESDASDTYFACPTDTDDYQAVGIGPGIGRSEETEAALLEQLSGCQTPLVLDADALNILANHRHALTTLPKGSILTPHPKELERMVGKCQNSYERLMKACELARTAKVHIILKGAYSAIITPSGKCYFNSTGNPGMATAGSGDVLTGVVLALLAQGYPAEEAAKIGTYVHGLAGDFARKKQGVISMTAGDIISNLPLAWRLVSEGHHHHHH", "soluble on expression in E. coli": "soluble"}
{"sequence": "MSLKIGKIVSVNFNQFRVKISSEIRGNSVNLAGTVYYFGNIGSYLKTTNSVGEQLICEVMSIFDSDTKLDSAAYDFDSNRELLLKPIGTITRDDRFNLGVGIFPGIYSEVNVVTFEDMELILQTGKDKELSKAIHQSFFLGESKNLINYPIDISINSFFNIHSAVLGNSGSGKSNTIAHIIQEIHKKKNNSAIGSRILIFDVNGEYKNAFTGHEISPYIKVRLLKPNIEATEDGVEPFYLPHFLMNIDEWSSFLMATDATQRPFWDKVLQESYKFYMIATHEGDDRQKLINYLRFKICNLIHILQAQGDSDTAIITTAQGILYGILTLIEMDDDLQRACQQEGVLQDLHDLNASEGHHHHHH", "soluble on expression in E. coli": "not soluble"}
{"sequence": "MSLKILITGSNGLLGQKLVSLLYLKPEITLIATARGANRDEIYEDYIYESMDITSEENVLKVFRKHKPDAVIHTAAMTHVDQCELNKEACVDQNITSVKHIVKACKEVGAFLLHVSTDFIFDGTRGPLTEEEIPNPVNYYGWTKWEAEKAVENSGLKWAIARTVLVFGVVQDMSRSNIVLWVKNNLEQKKEINVVNDQWRTPTLAEDLAMGCWLIVKNQAEGIFNISGEEMLSPYELAHKVADVWKLDKGLIKQADSSTFTQPALRPPKTGFIIDKAKKQLGYKPHTLEEGLDLLKEQLTEGHHHHHH", "soluble on expression in E. coli": "soluble"}
{"sequence": "MSLKILTIVVMSGNVISLNRPSANAAIRLGFTYEGRFRNHAIYKGRSRDTDWFSIIDSEWPVLKKRFENWLSPENFDEQGQQKRSLRDC", "soluble on expression in E. coli": "not soluble"}
{"sequence": "MSLKITDVQLTAIGMPRLTGFVNKHVIVQLFTDEGIEGIGEMSDFSHLPKYAVDIVDLERTLKQILVGKNPFDIAPINTELNGNFPEAMYYYEKGSFIRNGVDTALYDLCAKALGVSVSDLLGGRQREKIKVCFPIFRHRFMDEVEANLELVKKQYEKGFDVFRLYVGKNVDADEAFLAGVYNEFGGKVKVKSLDFSHLLDWKEALRITRRLAKYPIDLVESPALRNDFAGLHHFRMRCELPVSEHVWSLRQQSEMIKHDSVDIFNIAPVFIGGITQARKAADAAAVAEKSVLIGTTQELSIGTTAMAYFGSTLDHLNYISDPTGPELYVGDVVKNKVNYENGYLHLPERSTIGLGMELDWEKVEQYRVESLNWEDVSVHQLQDRTAQTRAEGHHHHHH", "soluble on expression in E. coli": "soluble"}
{"sequence": "MSLKITSIAVYQVDLPLREGNYAWSEGKSVSVFDSTVVRIETDSGIFGHGEVCPLGPVYLPAYAAGVRTGVAEIAPALIGDDPTELGKLNRKMDYLLKGHPYVKSALDVACWDIFGQAAGLPICTLLGGRYGEDFTLYRAISQRPAAEMAESVAMYRGEGYRRFQLKVGGDPNEDILRIFEAAEMLEPGDKLIADANTGWLKHEALRVVNAVRDVDVYIEQPCPSYEDCRAIRERTTLPFILDEVIDSVDMIVRCAADRAADVVNLKISKLGGLTKARQARDLCASLGLAMTIEDSWGGDIVTAAIAHLAHSTPTDYLFSSTDFNSYVTKSIADGAPQRDNGRLAAAREPGLGVKPKLDVLGKPVATYGKEGHHHHHH", "soluble on expression in E. coli": "soluble"}
{"sequence": "MSLKITTEQVCEALDTWVCRPGMTQEQATILITEAFWALKERPNIDVQRVTFNDGEVDQRALGVNRVKIFERWKAIDTRDKRDKFTALIPAIMEAIRISDFRLYCEITDGKSITYMIAGLNKEYGDVVESGLLFADPVVVERETDELIEKAIAFKHAYRQQYQYYFADKQMSARGAYEYRCTTMGEGHHHHHH", "soluble on expression in E. coli": "soluble"}
{"sequence": "MSLKIWGRKNSSNVRKALWIAHELGLDFESIDAGGAFGVVNEPHYRARNPNGLVPMLEDGDLTLWESNTIVRYLCAEYGTEQGWYLADPRQRALADKWMDWTTSSFATPFRPLFWGLLRTPEDQRDWVAINAAHKQCAQLLAIADETLASQPYLSGDQIGMGDIPLGSFIYAWFELPIERPDMYHLQAWYERLKQRPAYQAAVMTALTEGHHHHHH", "soluble on expression in E. coli": "soluble"}
{"sequence": "MSLKKALFLILDQYADWEGVYLASALNQREDWSVHTVSLDPIVSSIGGFKTSVDYIIGLEPANFNLLVMIGGDSWSNDNKKLLHFVKTAFQKNIPIAAICGAVDFLAKNGLLNNHSHTGNFVYLWKDYKQYKPISSFVEKQAVRDKNLVTANGTAPIEFTNLILEMIDFDTPENIEKMMYMNRYGFYHFCDKYGNPFVEGHHHHHH", "soluble on expression in E. coli": "soluble"}
{"sequence": "MSLKKLIAVAVLSACGSLAHANTNIPNYNTDAHLYEFTQTYDLVVPKGSQGQTNLWVPLPFNGEYQQVKSIHFEGNYMNAYVTENNKYGAKTLFATWNKDAQKRDLKVMMVIETKDREPMVKGALENYTPPKDIQYSVDVQEYLKATPHIKTDGIVKEFPDKILGKETNPLKKAELIHHWFVKNMERDNSVLGCGDGDVEKILTTGVLKGKCTDINSVFVALARAAGIPAREIFGIRLGAAEKMGKYSKGAFGSANEQGIANVSGGQHCRAEFYLAGFGWVPVDSADVAKMRLAEKKSVEDKDTQAVAKYLFGNWEANWVGFNHARDFDLYPQPELAPINNFGYPYAEVGGDPLNSFDPKEFKYDYVSKKLEGGSHHHHHH", "soluble on expression in E. coli": "soluble"}
{"sequence": "MSLKKQPLAYRMRPSNIDEVIGQQHLVGEGKIIRRMVDAGQLSSMILYGPPGVGKTSIAQAIAGSTDTHYKLLNAVVNNKKDMEIVVEEAKMSGQLILILDEVHRLDKGKQDFLLPHLEKGLLILIGATTANPFHSINPAIRSRCQIFELTPLTTDEIKVALTRALTDKTHGLGEEPVVISDEALAHFAFACGGDVRSALNGLELAVRSTQPNVKGEKEITLSVAEECIQRKSFHHDKDGDAHYDVLSAFQKSIRGSDVNAALHYLARLIEAGDLVSIGRRLLVIAYEDIGLANPQAGPRTLAAIEAAERLGFPEGRIPLANAVVELCLSPKSNSAYVALDAAIADIRKGHVGSVPAHLKDAHYKGAEQLGRGIGYKYPHDYERGWVKQQYLPDSLKSRAYYEPKRTGKFEDALADVYEKLRKSTFSEGHHHHHH", "soluble on expression in E. coli": "soluble"}
{"sequence": "MSLKKYTMNEMVDITKDMLNKRGVMIEDIARIVQKLQEKYNPNLPLSVCMENVEKVLNKREIIHAVLTGLALDQLAEQKLLPEPLQHLVETDEPLYGIDEIIPLSIVNVYGSIGLTNFGYLDKEKIGIIKELDESPDGIHTFLDDIVAALAAAAASRIAHTHQDLQDEEKEQDEKPVVSEGGSHHHHHH", "soluble on expression in E. coli": "soluble"}
{"sequence": "MSLKLFGTDGVRGKAGEFLDSFLAMRLAMAAGIYFKDKSITNNILVGKDTRRSGYMIENAIVSGLTSIGYNVIQIGPMPTPAIAFLTEDMRCDAGIMISASHNPYYDNGIKFFDAHGNKLSEDIEKKIEEIYFDDKLIQASKVDMEKIGQAKRIDDVIGRYIVSIKNSFPKDLTLKSLRVVLDVAHGAAYKVAPTVFKELGAEVIVMSDKPNGLNINENCGALHPANLAAEVKRLRADVGFAFDGDADRLVVVDEKGEVANGDSLLGVLALYLKEQGKLQSSVVATIMSNGALKEFLNKHGIELDTCNVGDKYVLEKLKANGGNFGGEQSGHIIFSDYAKTGDGLIAALQFSALMLSKKKSASSILGQVKPYPQLLTNLKIAEKKDLDKIKGLKELKKDLENKNINTLFRYSGTENLIRLLLEARDIKLLEKEMKNVVEFFKKALNGEGHHHHHH", "soluble on expression in E. coli": "not soluble"}
{"sequence": "MSLKLILNTQINTKLREIDISNETELIMSNDFPVNKIAMTGKVGYADMQGQRGTMEDALIVDSNIGIYAIFDGHGGHIVSSLSAQRIHERLQSLQNGSEFRELITQAVDSVVGELKEKKVLGGSTMCLVRVGQDKIEVANIGDSRCVAILKDGTQRQLSNDHKPTYRPEVERIREKGSFVSKGRVQGRLAVARAIGDFAVLGIESVIEFTEIDKDIVSRIVIGCDGLYDVVSNEDCLKICNENQSAVTTAYKLRDRAFQRGSTDNISVIVVDCLEGHHHHHH", "soluble on expression in E. coli": "soluble"}
{"sequence": "MSLKLLFFDTETTGVKPGSICQLSYILVDTSTKPQKTIGKNIFFTVDEMEPEAERIHGFSLEKLYELSEGMYFEDLYADFINDFLEADFIIGHNVQFDIKFLKHELLGLGEFFEPNNVFCTMKYYKDICKILRPTGDYKNPKLEEVIKHLNITDSEISETANKYFQGSGNYHDARFDTAATYLTVINGIKKGLIPRNYFTKLLEAEGHHHHHH", "soluble on expression in E. coli": "soluble"}
{"sequence": "MSLKLLIEEFIPVEEISEEAKKEKLGNAKPPIFSLHYWWARKPLITARAAVLGALISKENLPMIVGNGDLKTNLLRILRIPKDINEGPRAHTQDPPAEYLKEAIIKTWGEIPTVLDPFAGGGSIPFEALRLGCNAVAVDYNPVAYLILKETLEYPKKYGMKLILEGHHHHHH", "soluble on expression in E. coli": "not soluble"}
{"sequence": "MSLKLPDEEFKLALEVARARIKAKDKFSRSDLWFDLEGLRYATHEVVADYRGRRLKGQGVKSIADVSCGVGIQLIFFAKHGIRSVGIDIDPIKIEFAKRNAEKYGVEVEWVVGDALSPEIIEKVDAEVIFSDPARPPEVPERNLEDLLPSPLKIYEAYKHKTDSFIFDLPPQIRREKVPWKGEFEYIDLFGHVNRLTEGHHHHHH", "soluble on expression in E. coli": "not soluble"}
